{"source": "patent US11707511B2", "about": "“Vaccine compositions and methods of using the same” (The Board of Supervisors of Louisiana State University and …, priority 2017, dated 2023)", "molecules": {"B1": {"name": "1D4H5: IgG1 mAb of hybridoma 1D4H5, specific for GPV-M1; VH SEQ ID NO: 64, VL SEQ ID NO: 66 (antibody, V domains shown)", "VH": "MYLGLNCVFIVFLLKGVQSEVKLEESGGGLVQPGGSMKLSCVASGFTFSNYWMNWVRQSPEKGLEWVAEIRLKSNNYATHYAESVKGRFTISSDDSKSSVYLQMNNLRAEDTGIYYCSTGNYWGQGTTLTVSS", "VL": "MDFQMQIISLLLISVTVIVSNGEIVLTQSPTTMAASPGEKITITCSASSTISSNYLHWYQQKPGFSPKLLIYRTSNLASGVPARFSGSGSGTSYSLTIGTMEAEDVATYYCQQGSTISRTFGSGTKLEIK"}}, "test_system": "C. auris", "assay": "Passive transfer of mAbs in cyclophosphamide-immunosuppressed B6.129X1Elane mice, disseminated infection by C. auris", "format": "in vivo, Candida auris", "settings": "2×108 C. auris i.v.", "description": "An immunocompromised murine model of disseminated infection by C. auris was developed. To induce immunosuppression, Jackson B6.129X1Elane mice received a 200 mg/kg dose of cyclophosphamide (CY) by i.p. on day −3. Prolonged immunosuppression was maintained for 30 days by giving each animal a 200 mg/kg dose of CY by i.p. every 10 days after infection. On day 0, mice of different experimental groups were intravenously infected with 2×10^8 viable C. auris yeast cells.\nThe preventive effect of peptide-specific mAbs, for example 7H6A2 and 1D4H5, and combinations thereof, for example 7H6A2+1D4H5, was examined by passive transfer experiments. Each mAb was appropriately diluted in DPBS to give a 40,000-100,000 ELISA titer against each corresponding specific peptide coated on the plate. For testing, mice received 0.5 ml of each mAb or 1 ml of two mAbs in combination (0.5 ml of each) intraperitoneally. Control mice received 0.5 ml of the DPBS diluents.\nProtective mAbs protect immunocompromised mice against disseminated infection by Candida auris: The possibility of using passive mAb immunotherapy in immunocompromised mice against disseminated candidiasis by C. auris. The protective effect of mAb 7H6A2, 1D4H5 or these two mAbs in combination against the disease in immunocompromised mice was examined by passive transfer experiments (FIG. 14). Mice received either mAb 7H6A2 or 1D4H5 or the two mAbs in combination had reduced CFUs in kidneys (FIG. 14A) and in brains (FIG. 14B) as compared with control mice."}
{"molecule": "B1", "values": [{"measurement": "CFUs in kidneys as compared with control mice", "setting": "FIG. 14A", "value": "reduced CFUs"}, {"measurement": "CFUs in brains as compared with control mice", "setting": "FIG. 14B", "value": "reduced CFUs"}]}
